Target: Histone H3K4me3 peptide (Homo sapiens, UniProt P68431)

Kd: 7.9 µM
B1: ING4 PHD (protein)
chain: PNEPTYCLCHQVSYGEMIGCDNPDCSIEWFHFACVGLTTKPRGKWFCPRCSQERKK

Source: article PMC2650391 (2009)
